Reference: the supplement of paper PMC10567573
± gives the standard deviation.

Assay: protein stability index of a GFP-peptide fusion (GPS, HEK-293T) (PSI 1-6); higher = more stable
[1] = treatment: DMSO, c terminus: a fixed tail appended
[2] = treatment: MLN4924 1 uM, 8 h, c terminus: a fixed tail appended
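Also: 24-mer peptide tiles fused after GFP, lentivirally expressed, FACS-sorted into six equal bins by GFP/DsRed ratio, decoded by Illumina sequencing, PSI is the read-weighted mean bin number.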

Row | Sequence | protein stability index [1] | protein stability index [2] | protein stability index (treatment: DMSO, c terminus: native) | protein stability index (treatment: MLN4924 1 uM, 8 h, c terminus: native)
1 | ESESPQSHRAAGSGVSDYDYLDLD [TRIM9] | 5.5 ± 0.19 | 5.35 ± 0.2 |  | 
2 | KKPLAGSVDEQNALREVYAHAVLG [WEE1] | 3.43 ± 0.18 | 3.54 ± 0.52 |  | 
3 | GGNPFAEPSELDNPFQDPAVIQHR [SCAMP3] | 4.67 ± 0.14 | 4.98 ± 0.17 |  | 
4 | PETAHPNLVLSEDRKSVKFVETRL [TRIM39] | 4.04 ± 0.45 | 4.15 ± 0.16 |  | 
5 | RRAGEGRRSPRPDHPGTPPHKTFR [WEE1] | 4.78 ± 0.41 | 4.83 ± 0.32 |  | 
6 | VGDALEEVLSKALSQRTITVGVYE [GADD45A] | 2.54 ± 0.19 | 2.47 ± 0.56 |  | 
7 | RKIQFNFPYFRSDRDKRDFVSAGA [CLCN6] | 2.67 ± 0.16 | 2.76 ± 0.39 |  | 
8 | DAPLHSVGYTTLVGNNHESWGWDL [SPSB1] | 2.9 ± 0.16 | 2.85 ± 0.25 |  | 
9 | RSKYDYLMILRRVVNESTVCLMGH [TENT5C] | 3.05 ± 0.86 | 2.52 ± 0.55 |  | 
10 | EAAGGDHETESTSDKETDIDDRYG [CDS1] | 5.6 ± 0.09 | 5.62 ± 0.22 |  | 
11 | MNQTCCPQYTIRCRPLQFQPSKSH [ATE1] | 2.06 ± 0.27 | 2.1 ± 0.25 |  | 
12 | RMTSSPSSIPRRDDFFRHESGEHF [RAD54B] | 3.67 ± 0.25 | 3.68 ± 0.14 |  | 
13 | PTEGAGSPAKASQASKLRASKEEK [FBF1] | 5.41 ± 0.21 | 5.43 ± 0.28 |  | 
14 | RWSSDLNKHLTTHQGIKPYKCSWC [ZNF75A] | 2.55 ± 0.45 | 2.73 ± 0.49 |  | 
15 | FAQRTFDYELLQMLQIVVGVRDSG [PCDHGC5] | 3.01 ± 0.53 | 2.74 ± 0.84 |  | 
16 | ENILADNSVNDQTKILVVNAAYFV [SERPINB5] | 2.25 ± 0.21 | 2.34 ± 0.17 |  | 
17 | LRVISDEGGWWKAISLSTGRESYI [SLA] |  | 1.88 ± 0.22 |  | 
18 | MSRSGDRTSTFDPSHSDNLLHGLN [KLHL14] | 4.13 ± 0.24 | 4.09 ± 0.26 |  | 
19 | WEYMHSPSENSKEAEILEVLRHPR [CPOX] | 3.99 ± 0.12 | 4.07 ± 0.32 |  | 
20 | CIELYFDEKYSIEPSWECKFDHIE [NETO1] | 2.13 ± 0.42 | 2.24 ± 0.25 |  | 
21 | YARQHCPLKNPTFLDYVRPRSWTC [SOAT1] | 2.12 ± 0.46 | 2.14 ± 0.53 |  | 
22 | KWNTQTKARSYSYPHCTGISQQDP [ZC2HC1C] | 3.33 ± 0.34 | 3.63 ± 0.38 |  | 
23 | VPAQKFSALTFLRVDQDKDKDCSL [SMOC2] | 4.19 ± 0.3 | 4.52 ± 0.31 |  | 

Row | Sequence | protein stability index [1] | protein stability index [2] | protein stability index (treatment: DMSO, c terminus: native) | protein stability index (treatment: MLN4924 1 uM, 8 h, c terminus: native)
24 | PLLPSDLRRTGCAALRIANCKLFR [GAN] | 2.29 ± 0.34 | 2.35 ± 0.24 |  | 
25 | TDRRSFHEVREFKQLIYRVRRTDD [RIT1] | 3.03 ± 0.085 | 3.12 ± 0.14 |  | 
26 | PDTAPPSERPLEDLRLRLDHLGWV [RTN2] | 3.39 ± 0.44 | 3.24 ± 0.38 |  | 
27 | NAGISFSVKKQGETVADVRTLPNA [MLH1] | 4.37 ± 0.46 | 4.11 ± 0.1 |  | 
28 | LSEEERSEKAMLRSRIEEQSQLIC [CCDC89] | 4.53 ± 0.3 | 4.62 ± 0.11 |  | 
29 | IKWLKEAEEESSGGEEEDEDENIE [EIF5] | 5.41 ± 0.14 | 5.49 ± 0.25 |  | 
30 | EATSHYIIELLASDAGSPSLHKHL [PCDHGC5] | 2.08 ± 0.064 | 2.12 ± 0.11 |  | 
31 | MCYRVRWEEAAPGRAVEHAMFLGD [MYORG] | 2.27 ± 0.18 | 2.34 ± 0.47 |  | 
32 | PYGPPPDAVQTSLMDEGASSEKKR [RBBP5] | 5.37 ± 0.25 | 5.463 ± 0.047 |  | 
33 | QVPEEMSRCRNSYTEQELKPLTLE [DLC1] | 4.48 ± 0.26 | 4.46 ± 0.29 |  | 
34 | IVRFSGQSRGVPAVSESYSAPGAC [FBXO34] | 3.15 ± 0.34 | 3.36 ± 0.38 |  | 
35 | YPNYEFISDNSISWSAGLHNRYTE [FUT8] | 2.51 ± 0.1 | 2.72 ± 0.36 |  | 
36 | LANLSRTQLLHLGLTQGLIERLK [KLHDC10] |  |  | 2.38 ± 0.53 | 2.35 ± 0.18
37 | SDYFCAMFTSELSEKGKPYVDIQG [KLHL12] | 2.53 ± 0.14 | 2.91 ± 0.27 |  | 
38 | LSAALASSQKQHSFTSSDKTIKSF [C8orf76] | 3.77 ± 0.35 | 3.74 ± 0.2 |  | 
39 | TVLVSVTVFDANDNAPVFTLPEYR [PCDHGA10] | 2.76 ± 0.43 | 2.58 ± 0.36 |  | 
40 | LVSIRNNRNLQKFSLFGDISVLQQ [FBXO33] | 2.17 ± 0.14 | 2.09 ± 0.29 |  | 
41 | DAKARKQEIIKTTEQLIEAVNNGD [CAMK2B] | 5.27 ± 0.29 | 5.26 ± 0.19 |  | 
42 | MPTGPPEDRLSLKFLPSSEEDNDD [DRICH1] | 5.47 ± 0.2 | 5.59 ± 0.15 |  | 
43 | VAREYYSEADASHCIQQILEAVLH [CAMK2B] | 2.29 ± 0.3 | 2.87 ± 0.49 |  | 
44 | TGTYQRAILQNHTDFKDKIVLDVG [CARM1] | 3.34 ± 0.092 | 3.35 ± 0.27 |  | 
45 | EAPALPAPAAPMVSKGAESSRSSE [BRD3] | 5.56 ± 0.32 | 5.73 ± 0.25 |  | 
